Laboratory results: US9821037B1, “Compounds and method of use as anti-infection compounds and therapeutic agents to regulate cholesterol metabolism” (University of Kentucky Research Foundation, priority 2013, dated 2017)

B1: YSS-92: the 92 C-terminal amino acids of YSS (protein, UniProt P29704 353-444, looked up, fragment)
chain: KSKLAVQDPNFLKLNIQISKIEQFMEEMYQDKLPPNVKPNETPIFLKVKERSRYDDELVPTQQEEEYKFNMVLSIILSVLLGFYYIYTLHRA
B2: YSS: squalene synthase from S. cerevisiae (protein, UniProt P29704 1-444, looked up)
chain: MGKLLQLALHPVEMKAALKLKFCRTPLFSIYDQSTSPYLLHCFELLNLTSRSFAAVIRELHPELRNCVTLFYLILRALDTIEDDMSIEHDLKIDLLRHFHEKLLLTKWSFDGNAPDVKDRAVLTDFESILIEFHKLKPEYQEVIKEITEKMGNGMADYILDENYNLNGLQTVHDYDVYCHYVAGLVGDGLTRLIVIAKFANESLYSNEQLYESMGLFLQKTNIIRDYNEDLVDGRSFWPKEIWSQYAPQLKDFMKPENEQLGLDCINHLVLNALSHVIDVLTYLAGIHEQSTFQFCAIPQVMAIATLALVFNNREVLHGNVKIRKGTTCYLILKSRTLRGCVEIFDYYLRDIKSKLAVQDPNFLKLNIQISKIEQFMEEMYQDKLPPNVKPNETPIFLKVKERSRYDDELVPTQQEEEYKFNMVLSIILSVLLGFYYIYTLHRA
modifications: full-length
notes: squalene synthase from S. cerevisiae

What was measured:
BY4741 yeast = assay: Saccharomyces cerevisiae growth inhibition assay (galactose-inducible over-expression of C-terminus constructs); assay type: cell-based; settings: 4 days, 28° C.; for yeast growth with gene expression induced: BY4741, galactose as carbon source
Method: Constructs were created in which the C-terminal 92 AA of YSS, the C-terminal 64 AA of YSS, the C-terminal 66 AA of ASS, the C-terminal 92 AA of YSS in which the 26 AA domain is replaced by the corresponding of ASS or BSS, and the C-terminus of either ASS or BSS in which the 26 AA domain is replaced by the corresponding of YSS were cloned into the pESC-Ura (Gal1 and Gal10 promoters) vector. Constructs were transformed into BY4741 yeast and positive transformants were grown in 2 mL of Yeast-Synthetic Drop-out medium for 4 days. Serial dilutions (Corresponding to O.D.600=0.5, 0.1, 0.02, and 0.004) were plated on selection media containing either glucose or galactose as the carbon source. Pictures were taken after 4 days growth at 28° C.
To test this possibility, a gene coding for the 92 carboxy terminal residues of the yeast squalene synthase was inserted into a galactose inducible expression vector and the recombinant vector introduced into a wild type yeast (BY4741) (FIG. 7). When grown on glucose, expression of the 92 carboxy-terminal squalene synthase gene was suppressed and the transformed yeast grew normally. […] If a plant complementary carboxy-terminal gene was substituted for the yeast, no adverse effects were noted. When the 26 amino acid linker domain was deleted from the yeast gene construct, growth also was not impaired.
Constructs to be tested in S. cerevisiae were created using the pESC-Leu vector (Agilent) which harbors the Gal1/Gal10 divergent promoter to allow for galactose induction of gene expression. Primers used to create these constructs are listed in Table 4 (restriction sites, if any, in bold). YSS-92 was created by PCR amplifying a portion of the YSS gene corresponding to the 92 C-terminal amino acids using the primer sets, YSS-92 EcoRI For and YSS NotI Rev, and YSS-92 BamHI For and YSS HindIII Rev, and cloning into pESC-Leu with the corresponding restriction enzyme sites. ASS-66 and YSS-64 were created in the same manner. ASS-YSS and YSS-ASS were created in a similar manner using YSS-ASS-YSS or ASS-YSS-ASS as the templates for PCR, respectively. […]

[1] = system: erg9 knockout yeast line CALI7-1; assay: erg9 complementation assay (restoration of ergosterol prototrophy); assay type: cell-based, S. cerevisiae; settings: construct expressed in CALI7-1; plates lacking ergosterol, 28° C., 72 h
Text: Various squalene synthases were cloned into the yeast expression vector, Yep352-ADH1, including those from S. cerevisiae (YSS), B. braunii (BSS), N. benthamiana (TSS), A. thaliana (ASS), and R. norvegicus (RSS), as well as a C-terminal truncated form of YSS in which 24 amino acids comprising the ER membrane-spanning region were eliminated (YSStr). These constructs were transformed into the yeast line CALI7-1, which has been selected for high level FPP biosynthesis (10) and has an erg9 knockout mutation. It is unable to synthesize sterols de novo and is dependent on exogenous ergosterol for growth. […] To evaluate the encoded enzymes for catalytic activity, extracts prepared from the CALI7-1 yeast lines were assayed for squalene synthase enzyme activity. Constructs were also expressed in TN-7 yeast line and cultures were grown in liquid media with ergosterol and subsequently analyzed for squalene accumulation. Squalene levels were determined in TN-7 because in this yeast line, there is no possibility of squalene feeding into the ergosterol biosynthetic pathway. This allows for accurate comparisons of squalene production by the various SS enzymes.
The Cali7-1 yeast line, which has an erg9 deletion so that it cannot synthesize sterols de novo and requires exogenous ergosterol for growth, was used for these purposes (10). […]

| Molecule | yeast growth with gene expression induced (BY4741 yeast) | yeast growth with gene expression suppressed (BY4741 yeast; BY4741, glucose as carbon source) | ability to complement the erg9 deletion (growth without exogenous ergosterol) [1] |
| --- | --- | --- | --- |
| KSKLAVQDPNFLKLNIQISKIEQFME (listed as Saccharomyces cerevisiae) [26 amino acid stretch of YSS, 26 amino acid linker-domain of squalene synthase from S. cerevisiae] | can inhibit the growth of yeast |  |  |
| B1 | growth was severely arrested | grew normally |  |
| B2 |  |  | could restore ergosterol prototrophy |
